Assay: soluble on expression in E. coli; label from the status in PepcDB or PDB records

MGSDKIHHHHHHMKNKAESLASSSASILTLGLGWFPKNPGGLERYMYELTHKLAANKDQIELCGVGLPEAERNSPIKLTNLASPDSAIWQRLWSIRTNFQKTRTNKPDAINLHFALYSFPLLDILPKGVPVTFNFHGPWASESQQEVVNKNLSLLIKHHLIEKNTYNHCDRFIVLSKAFGKILHDKYQVPWSKINIIPGGVDINWFQPNLSRQDACKQLGWPNNRRIIFTSRRLVHRTGVDKLLKALAIIKPRIPDVWLAIAGRGHIQAALQQQATELGLDDNVKFLGFLPDEQLPIAYQAAELTIMPSQSFEGFGLVIVESLACGTPVLCTPVGGMPEILSEFSPDLITTSTEASAIAEKLEQVLLGNIPIPSREACRHYAVTHYDWNQIAQQVRNVLLN
soluble on expression in E. coli: not soluble

MKQGKFSVFLILLLMLTLVVAPKGKAEAASSGWQPVSGISGCKIRVITDAYTYTKSATSIDAYAETNGKCGKLNYKSFGVSIVEGGDIGPQYSGYFSSRTPTKKFYFSKLPKPTGTPWAVGLSVYKGKAKGAAFVYINPQKRLEHHHHHH
soluble on expression in E. coli: not soluble

MSLSTERTERVRPQRVEQNLPPLSWGGSGVQTAYWVQEAVQPGDSLADVLARSGMARDEIARITEKYGGEADLRHLRADQSVHVLVGGDGGAREVQFFTDEDGERNLVALEKKGGIWRRSASEADMKVLPTLRSVVVKTSARGSLARAEVPVEIRESLSGIFAGRFSLDGLKEGDAVRLMYDSLYFHGQQVAAGDILAAEVVKGGTRHQAFYYRSDKEGGGGGNYYDEDGKVLQEKGGFNIEPLVYTRISSPFGYRMHPILHTWRLHTGIDYAAPQGTPVRASADGVITFKGRKGGYGNAVMIRHANGVETLYAHLSAFSQAEGNVRGGEVIGFVGSTGRSTGPHLHYEARINGQPVNPVSVALPTPELTQADKAAFAAQKQKADALLARLRGIPVTVSQSDEGHHHHHH
soluble on expression in E. coli: soluble

MAQEIERKFLVSGDFKSFAFAQSRIMQGYICSARGRTVRVRIRDDKGYLTIKGASNESGTSRYEWEKELPLSEAEELMKLCEPGMIDKTRYLVRSGNHIFEVDEFYGENEGLIVAEVELGTEDEAFVKPGFIGEEVTGDVRYYNSHLMKKPYKMW
soluble on expression in E. coli: not soluble

MANVGGRRKPAADARLEVIQKLFPEAVVDGGIDWELLKRVFGGHERQEAYEFTWPGKAEARRLAELPASGVLRPDQAASKQWETTNNWYIEGDNLEALKLLRTSHAGTIQMIYIDPPYNTGKVLTYKDNWRKGKAVVPSGIQEEARGHVGWLNMMYPRLWVARELLAETGAIFISIDDTEQANLRKMCDEIFGERNFVATFIWQRAFSPVNMNKFASRNHDFILCYAKNIDRLAWYGLPRHPEADVRYANPDNDPRGPWMSGDLSVGPPIPEKIYEIVTPSGRVVSPPNGYCWRVTKERFAELAADNRIWFGKDGNGVPRLKRFLSEVKSTVTPLTIWTHDEVSHSQEAKKELKELFDGLAVMDYPKPVKLIQRMVALTTRDDDPILDFFSGSATTAHAVMQQNAEDGGRRSFIMVQLPERLAETSEAYRVGFRTICDIGRERIRRAGEKIVYETGKTELDIGFKVFRIERTNQPAR
soluble on expression in E. coli: not soluble

MRAQMKQYNCHEGALPFTKSYLLRPLFNAFLMSPKPFHTTEACIGCKKCEKVCPVGNITVTDRPVWGGNCTQCLACYHVCPVHAVEYGKMTGLEHHHHHH
soluble on expression in E. coli: not soluble

GSSHHHHHHSFFFLSFHISNLQFNSSLEDPSTDYYQELQRDISEMFLQIYKQGGFLGLSNIKFRPG
soluble on expression in E. coli: soluble

GPGSMKERRSVSQSRTSRTGQLRNGGFRESRFRVALMSRCARPSSSGTSHMFAPSSLPSVGQPSYESGVSSMPNISFPTCNDGALSPGDSMYPPSLPQRAKNKRTGQKDKQKRQSTLGSVDSEEEKRSFLASAAAFRRHRRYNNPFTAYCLASDPYDRPREIERQRQFMSCYKRIACRFVAGGKNALDKPTRYMLGDCVARLYKAVAADWPEADPMVVSSAEDLIVVFMNLDAVRNPVTALRYMNALLKRCDVVRAFDLKKVPEGWDVVTEDGHLMYTFRPPWVGERRFLPDQVAVKKSRGR
soluble on expression in E. coli: not soluble

MGSDKIHHHHHHMVLRYTALGDSLTTGRGSGLFSPGFVQRFGDMMEADLKTRTAINIFARSGLNTEEILGLLSYPYVQKCIRDADMITITGCGNDLIDSVLAYQTSKDETIFSRVSAHCHENFEKMIAKVAEIKGENPSPYAIRVFNLYNPFPEIDIAGKWITSFNSHLETLASAPHVKIADAYSIFKGKEQEYLSFDGVHPNSKGYQAMAEAVHKLGYKELSVS
soluble on expression in E. coli: not soluble

MGSDKIHHHHHHMEVKVGLAPMAGYTDSAFRTLAFEWGADFAFSEMVSAKGFLMNSQKTEELLPQPHERNVAVQIFGSEPNELSEAARILSEKYKWIDLNAGCPVRKVVKKGAGGALLKDLRHFRYIVRELRKSVSGKFSVKTRLGWEKNEVEEIYRILVEEGVDEVFIHTRTVVQSFTGRAEWKALSVLEKRIPTFVSGDIFTPEDAKRALEESGCDGLLVARGAIGRPWIFKQIKDFLRSGKYSEPSREEILRTFERHLELLIKTKGERKAVVEMRKFLAGYTKDLKGARRFREKVMKIEEVQILKEMFYNFIKEV
soluble on expression in E. coli: not soluble

MAHHHHHHMHADGMHTEQDEFTLSQYVQRTPLARPLGLKIGARVMLRTNLAPGLVNGSLGTVVAFRKLEMDQLPRYIVGNAQREESILQYADYLKYEQGFEVPLVPVLDFNGRQEVIPPVTHFVGGLPNTHFYSMGIIALPLSLAYAFTVHKVQGLTLVGRVHLELSRMWPCEHLLYVAMSRVRNPEQLSVSSFHPSLVRAAADCLLFDDSLPPVTQVRIAPYMVAATWRRSSERRKKTVLRKRLEAYVKRRQQRLQSEASKGDIRAEIRLLEEKMLKQRVRASAAHRKRRSTPGKLGAVAGSPMV
soluble on expression in E. coli: not soluble

MIILYDFLQESSVMPRSKNDSKLKKKSALQSKFKEQQLNHGSKEHKSKFKFSQRKAKKKGPGMTHLPGNIYTLFTPVNGPKSKDEWIDTSKIMLDLHIDNMSSSDYIPSAIDRTDLVMVQSVHLLRKTGGRGLFAREDIPKGTCIGIYTGEVYSEQEFEQYLKEHVGSDKSYAMYVGGRVIDAARKGNLTRYINFSDSQDNAEFVETTLNRKKVAKVITTKNIKAGQQLLINYNTYEEQASRYYYFLNPGDGWLSAQEFYQTYQSQYRLEQMPYNLEGFDLKAGDRVLMTQIGRIILANYSLAKEQELNASDIDLPFLKVGSDEKILDFDEADTFTPLMAACYLGQVENVKWLIEHGANIDQQQSHSGHCPLSLTLKGYSLAKDTQKYIDIIQLLIKNQVNLLVHDRSDKTFLHNAALVLNNLDFQSVVKFLIGQNPIDINEYFTYIDENDFDIVMHCYNNKLFDKALVLLAFYPDYFKRNYMSDNEGHNQFNINAFRKAIKDFNSNERSILLMQLRESGLHLPEDLLEQLGIMDSSITLESKFF
soluble on expression in E. coli: not soluble

MSLTSAPCPFRVNRIDLRVLPMRTRFPFRYGIASLVALPHLFVTVELEVNGQSVIGRTSEGLPPKWFTKDPGTPNELEVAGMLAVIQNAVRLATLHGREPVTWYPLVRQLAAEQKLWASRHDHPPLLWNLGISLMERALLDALCQAWQEPLHAVLRGPALGIRWSELHPSLADDAVPPFLADPPASQLALRHTIGLADPLTAADIPSGEEVNDGLPHTLDDCIRAYGLRYFKIKLSGNLEADRHRLTSVASVIRQHASPDFSATLDGNENFQDLTAFREWFEALNSDPGLKDFMPHVLWIEQPLHRDSALNPELFDAFRNWPEAPRLIIDESDGESGALQTALELGYSGGSHKNCKGILKGLANAATLHAFRAAHPERDFILSGEDLANVGPIPLTQDLAMQALLGIPHVERNGHHYFRGLSMYPDGIGVSAATLAAHPDLYHQLPDGLATLNIREGFIAIDSVNQAPFGTPVAPPVDQLPTVKEWILQGGLGALEGEGHHHHHH
soluble on expression in E. coli: soluble

MDGEKSGNRELYTKRVYEYDQVINQVLKHEENILSLIKKDTFGAAYKRLVLADEMIYLATLYLAKFRLSVALLGGKNENILNEARKTLYKPIIYLEEIVTDLIDAPFSEYEEGVDRISKITEKQRYYLIRKLGLVINLVIDAYGENTKWRWSFIDIEARFAVVAKNIMDLKEISQTGLNPHAEDYDTVIYHLRLVKKLFTKAADKYREKYEIVTNNISDFRTAILFLEGLRRVHMVLNEHREVEEIKRKIEIWKDKMEKDLKQKDKPKK
soluble on expression in E. coli: not soluble

MIIMGLFDEVVGAFLKGDAGKYQAILSWVEEQGGIQVLLEKLQSGGLGAILSTWLSNQQGNQSVSGEQLESALGTNAVSDLGQKLGVDTSTASSLLAEQLPKIIDALSPQGEVSPQANNDLLSAGMELLKGKLFR
soluble on expression in E. coli: not soluble

GPLGSAGSSWQCDTCLLQNKVTDNKCIACQAAKLPLKETAKQTGIGTPSKSDKPASTSGTGFGDKFKPAIGTWDCDTCLVQNKPEAVKCVACETPKPG
soluble on expression in E. coli: soluble

MGSDKIHHHHHHMKVLHIFPSAFLGGSELCAIESIESLQKTGVENHVILPAEGAVINRLENLSVSYKIIQHNWWMSSKPWKTYLKVFMLKGFYSSAASIREYIKNNGIDVVITHSIVIPSGALGARLTNTPHVWYLHEYGDLDHQLKFEYGKSFSLNLINKLSKKIIVNSDALKKHFSKKLPAAKINRLYYSVNYPEFTPLTEKPSGELLLCMVGRIAKGKNQLVALKALALLKQEQIFPQLVFVGGADPDYLKLLEAYIKTHELEKQIAFAGQTDRPWDFVMRSQAVVVGSAMEAFGRVTVEAMKAGRIPIVSDTGAGPELITHNENGFLFDPEKEKQLAEIIKQIWLGTDFTEMTVQAKQYALAHFNSKLHGHELLKILTGLV
soluble on expression in E. coli: not soluble

MGSDKIHHHHHHMTTPSETSPSRMNSTQAWVSYLSKVELPVLANTLRQINELTDSRNSTVNELANVILNDAQLTSQVLRLSNTVFYNQTRTQVSTVSRAITLIGFDAVKSMAISSLIVDSLLKRNDRPHLLRCLARAIHAAVQARCLMPKRTEHALEEVFIGALLMNIGELAFWSCETEQASELEERLRLEEPPVEAQKAVLHTTFTEITRGLVDAWSLGPFIKEVVAPGKANSMASSLVRNSVEMARVSENGWSGAEMDKVLEKLSDDIGETPAAIRDQLKVNAQEASKVAVSLGIPQVTALLPGNQESVPDAPAMDSDLQLQILRELTQTLAEKPDINEVCQLVIEGIHRAIGMQRVALLMTDRSGELLVPRKVGGRGTEEWREHFVIKKDGTGPLGPLLPHGTCAVYEPRKQTEGVPYDRWLGKVPALAGSLKAKGRLVGLFYADNAAAGYVPSEQQLAAFGHFIQNAQLCLTLMSARG
soluble on expression in E. coli: not soluble

MGSDKIHHHHHHASGFTLGKDILSYVAVGDSFTEGLDDPYPDSARFPQGRYRGWADRFAEHLARHVREVRYANLAVRGKLLRQILTEQLPRAVELRPDLVTLCAGGNDILRPGSDPDTLADAFEGAVRQLRDTGADVVIFTGFDTGFQPVMRHLRGKIATYNMHLRGIADRYHCRVVDLWSMKIFQDRRAWSDDRLHLSAEGHRRLALRVCEVMGVPVDEDWNAPWPQEPPAPWHQARQEDLRWARQHLVPWIHRRLTGRSSGDGVRPKRPNLEPLVRR
soluble on expression in E. coli: not soluble

MDVDLASVEVVFAQKLACGEPATRQRALRVLHDWIRDQSAKKHFDDADLMRLCKGLHYVMWMQDKMILQEELADRIGGLINIFTSEEEKVRFVACFLKSLSKEWPHIDRWRMDKFLMEVRRMVRACFTHLAELKWKKDIRDEYWKVFQETTISTDKSFNEALKFHFASILLDELDAAGGLTKKQVTACLKPYIELLGNKDISEYLFTSLYEEIFKTILQQKSDLITAVEEGEEMDQGGIEFSYKEIGALLFEVGKQEHLNAKRRKKIYDLVKKFDKSSRGQDPLHFETPVPKERLTRHDYEEAEKKAIVLANSFKQERKSSRKVKSQIKKRAREAAEAARQENGDDVPDDEIAEVKKGNGKKTAVPKVKKGRPLLKAKGVGKKRMVGGLKRKAGKKN
soluble on expression in E. coli: not soluble

GPGSMEGERTMKKNKKGSARGDCDGMISVGAKRLLVSVQDKNRRQKHGEFFDELLLVTQKAKRSPQVINIPGKNEVPVLAVGYIARAMGLNLSNVEVSCLVEMVEEKDLASRGFVPADALKEVIVEALMTGIMAPPKAPVKATPSRKKTASTLPPATIKPISVVRDGEEAIYEAFCVLDLSRRGYLEAEEMRHFLRIGGEPFTEEEVEEFITAAADPENGRIYYEEFADVLARE
soluble on expression in E. coli: soluble

From the DeepSol protein solubility set
